Test results from paper PMC3089455.

Experiments:
[1] = target: AhQnr Δloop1 deletion mutant with C-terminal hexahistidine tag (Aeromonas hydrophila ATCC 7966); assay: SEC
[2] = target: Aeromonas hydrophila AhQnr (Aeromonas hydrophila ATCC 7966); assay: AUC
[3] = target: AhQnr Δdouble deletion mutant (both loops removed) with C-terminal hexahistidine tag (Aeromonas hydrophila ATCC 7966); assay: SEC
[4] = target: AhQnr Δloop2 deletion mutant with C-terminal hexahistidine tag (Aeromonas hydrophila ATCC 7966); assay: SEC

Substance: AhQnr Δloop1 deletion mutant with C-terminal hexahistidine tag (natural protein)
- stoichiometry N [1]: 2

Substance: Aeromonas hydrophila AhQnr (natural protein)
- stoichiometry N [2]: 2

Substance: AhQnr Δdouble deletion mutant (both loops removed) with C-terminal hexahistidine tag (natural protein)
- stoichiometry N [3]: 2

Substance: AhQnr Δloop2 deletion mutant with C-terminal hexahistidine tag (natural protein)
- stoichiometry N [4]: 2
